Biological target: human BCMA-Fc (R&D system, 193-BC-050) (human) (UniProt Q02223)
Assay: competition ELISA on coated human BCMA-Fc; antibody titrated and mixed with 200 ng/ml BAFF, bound BAFF detected, absorbance 450 nm

Sequence of human BCMA-Fc (R&D system, 193-BC-050) (human) (Q02223 1-54 limits assumed): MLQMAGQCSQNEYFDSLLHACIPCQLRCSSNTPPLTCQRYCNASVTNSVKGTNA

B1: J6MO (antibody, INN chains, looked up, V domains shown)
VH: QVQLVQSGAEVKKPGSSVKVSCKASGGTFSNYWMHWVRQAPGQGLEWMGATYRGHSDTYYNQKFKGRVTITADKSTSTAYMELSSLRSEDTAVYYCARGAIYDGYDVLDNWGQGTLVTVSS
VL: DIQMTQSPSSLSASVGDRVTITCSASQDISNYLNWYQQKPGKAPKLLIYYTSNLHSGVPSRFSGSGSGTDFTLTISSLQPEDFATYYCQQYRKLPWTFGQGTKLEIK
- IC50 (read off the curve): 4 nM

Reference: patent US20210284749A1
